Reference: article PMC5647379
Blank lines part the entries; values can stand above or below the substance they belong to.

Key:
[1] = molecular target: Fluorescent dansylated CaM (D-CaM, 5-(dimethylamino)naphtalene-1-sulfonyl-calmodulin) (rat) (UniProt P0DP29); experiment: other fluorescence titration; increasing GST-fusion protein added to D-CaM (12.5 nM) in the cuvette; dansyl fluorescence enhancement, Hill fit, apparent affinity (EC50); 25 °C; Fluorescence buffer with 9.63 mM Ca2+ added (3.9 µM free Ca2+)
[2] = molecular target: mTurquoise2-Kv7.2-ABCD (residues 310-653) (human); experiment: FRET or BRET; equimolar mixtures (500 nM or 2.5 µM each) of purified CFP-ABCD/CaM (donor) and YFP-ABCD/CaM (acceptor) complexes; FRET index followed over time; KCl 120 mM, Hepes 50 mM, NaCl 5 mM, EGTA 5 mM, with or without Ca2+
[3] = molecular target: dansylated calmodulin (D-CaM, 5-(dimethylamino)naphtalene-1-sulfonyl-calmodulin) (rat) (UniProt P0DP29); experiment: other fluorescence titration; D-CaM 12.5 nM in the cuvette, increasing concentrations of GST-fusion protein; no Ca2+ (EGTA 10 mM); Tris-HCl 25 mM pH 7.4, KCl 120 mM, NaCl 5 mM, MgCl2 2 mM; 25 °C; apparent affinity (EC50 of a Hill fit to the fluorescence enhancement)
[4] = molecular target: dansylated calmodulin (D-CaM, 5-(dimethylamino)naphtalene-1-sulfonyl-calmodulin) (rat) (UniProt P0DP29); experiment: as above; remark: listed apart in the source
[5] = molecular target: dansylated calmodulin (D-CaM, 5-(dimethylamino)naphtalene-1-sulfonyl-calmodulin) (rat) (UniProt P0DP29); experiment: other fluorescence titration; as a2 but with an excess of free Ca2+ (3.9 µM; 9.63 mM Ca2+ added to the Fluorescence buffer); apparent affinity (EC50)
[6] = molecular target: Fluorescent dansylated CaM (D-CaM, 5-(dimethylamino)naphtalene-1-sulfonyl-calmodulin) (rat) (UniProt P0DP29); experiment: other fluorescence titration; increasing GST-fusion protein added to D-CaM (12.5 nM) in the cuvette; dansyl fluorescence enhancement, Hill fit, apparent affinity (EC50); 25 °C; Tris-HCl 25 mM pH 7.4, KCl 120 mM, NaCl 5 mM, MgCl2 2 mM, EGTA 10 mM; without Ca2+
[7] = molecular target: dansylated calmodulin (D-CaM, 5-(dimethylamino)naphtalene-1-sulfonyl-calmodulin) (rat) (UniProt P0DP29); experiment: dansyl-CaM fluorescence time course; D-CaM 12.5 nM in a stirred cuvette, emission at 500 nm against time; wt protein (400 nM) added, or one mutant (400 nM) and two minutes later the other mutant (400 nM); also 50 and 100 nM; Fluorescence buffer with or without Ca2+; 25 °C and 37 °C

Substance: ABCD# (equimolar mixture of GST-ABCD-S511D and GST-ABCD-A343D of Kv7.2)
- EC50 [1]: 78.5 nM

Substance: mCitrine-Kv7.2-ABCD (residues 310-653) (domain or fragment)
- time to reach half maximal FRET (2.5 µM donor and acceptor) [2]: 6.9 min
- time to reach the half maximal FRET index (500 nM mixture) [2]: 12.2 min

Substance: ABCD#-L609R (equal mixture of helix A and helix B mutants of ABCD carrying L609R)
- EC50 [3]: 120 nM

Substance: ABCD# (equimolar mixture of ABCD-A343D and ABCD-S511D)
- half-time in the trans-binding assay (400 nM) [7]: 6.5 min
- time to reach the half-maximal D-CaM fluorescence signal (400 nM, 25 °C) [7]: 12 min
- time to reach the half-maximal D-CaM fluorescence signal (400 nM, 37 °C) [7]: 9.2 min
- EC50 [3]: 45.5 nM

The remaining lines, values ahead:

- EC50 [3]: 9.1 nM
- EC50 [4]: 9.2 nM
- EC50 [5]: 15.1 nM
Substance: GST-Kv7.2 ABCD (helices ABCD fused to GST) (domain or fragment)

- EC50 [1]: 173 nM
- EC50 [6]: 119 nM
Substance: ABCD#-L609R (equimolar mixture of GST-ABCD-S511D-L609R and GST-ABCD-A343D-L609R of Kv7.2)
